Laboratory results from US20060211022A1.

Biological target: NGFR/EPOR hybrid receptor NECD (NGFR/EPOR chimera D) on 32D/NECDsc-14 cells (human; mouse)
Assay: cell-based or functional assay

Sequence of NGF (P01138 122-241): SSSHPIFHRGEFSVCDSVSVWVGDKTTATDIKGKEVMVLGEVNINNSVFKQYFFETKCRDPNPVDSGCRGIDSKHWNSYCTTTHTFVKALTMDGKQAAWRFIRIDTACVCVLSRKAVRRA
Sequence of NGFR/EPOR hybrid receptor NECD (NGFR/EPOR chimera D) on 32D/NECDsc-14 cells (human; mouse) (chain, as listed by the source mutant limits assumed): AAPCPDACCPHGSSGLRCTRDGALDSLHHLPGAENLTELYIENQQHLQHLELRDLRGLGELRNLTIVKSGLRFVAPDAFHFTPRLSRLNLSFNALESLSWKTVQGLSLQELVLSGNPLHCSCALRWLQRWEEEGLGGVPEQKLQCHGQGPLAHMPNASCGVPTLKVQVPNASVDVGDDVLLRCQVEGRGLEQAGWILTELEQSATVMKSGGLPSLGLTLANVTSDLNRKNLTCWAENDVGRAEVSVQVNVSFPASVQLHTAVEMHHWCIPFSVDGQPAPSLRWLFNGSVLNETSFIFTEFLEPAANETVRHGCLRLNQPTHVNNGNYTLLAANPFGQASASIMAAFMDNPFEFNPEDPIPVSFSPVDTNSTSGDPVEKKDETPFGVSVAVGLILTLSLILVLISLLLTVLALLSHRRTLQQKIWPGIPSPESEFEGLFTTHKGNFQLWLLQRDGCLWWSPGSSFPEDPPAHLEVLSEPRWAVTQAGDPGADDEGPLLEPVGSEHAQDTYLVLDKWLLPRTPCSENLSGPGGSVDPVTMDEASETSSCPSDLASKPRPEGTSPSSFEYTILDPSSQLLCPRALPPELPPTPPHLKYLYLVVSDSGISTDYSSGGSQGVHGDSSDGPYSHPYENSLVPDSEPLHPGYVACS

An NGF dose response in serum matrix, 0.02 ng/mL NGF, 1% human serum of 947, an NGF dose response in serum matrix, 0.02 ng/mL NGF, 2% rat serum of 1190 and an NGF dose response in serum matrix, 0.02 ng/mL NGF, 5% cyno serum of 2180 were found for NGF (ligand) in this work. The NGF dose response in serum matrix, 0.02 ng/mL NGF, no serum was 595, the NGF dose response in serum matrix, 0.07 ng/mL NGF, 1% human serum was 1480 and the NGF dose response in serum matrix, 0.07 ng/mL NGF, 2% rat serum was 3520. For the same substance, the NGF dose response in serum matrix, 0.07 ng/mL NGF, 5% cyno serum was 5760, the NGF dose response in serum matrix, 0.07 ng/mL NGF, no serum was 1390 and the NGF dose response in serum matrix, 0.21 ng/mL NGF, 1% human serum was 5830. For the same substance, the NGF dose response in serum matrix, 0.21 ng/mL NGF, 2% rat serum was 12000, the NGF dose response in serum matrix, 0.21 ng/mL NGF, 5% cyno serum was 15800 and the NGF dose response in serum matrix, 0.21 ng/mL NGF, no serum was 5420. It also gave an NGF dose response in serum matrix, 0.62 ng/mL NGF, 1% human serum of 13400, an NGF dose response in serum matrix, 0.62 ng/mL NGF, 2% rat serum of 29400 and an NGF dose response in serum matrix, 0.62 ng/mL NGF, 5% cyno serum of 32500. The NGF dose response in serum matrix, 0.62 ng/mL NGF, no serum was 17100, the NGF dose response in serum matrix, 1.85 ng/mL NGF, 1% human serum was 19500 and the NGF dose response in serum matrix, 1.85 ng/mL NGF, 2% rat serum was 37700. It also gave an NGF dose response in serum matrix, 1.85 ng/mL NGF, 5% cyno serum of 43100, an NGF dose response in serum matrix, 1.85 ng/mL NGF, no serum of 27400 and an NGF dose response in serum matrix, 5.56 ng/mL NGF, 1% human serum of 22200. It also gave an NGF dose response in serum matrix, 5.56 ng/mL NGF, 2% rat serum of 43400, an NGF dose response in serum matrix, 5.56 ng/mL NGF, 5% cyno serum of 52200 and an NGF dose response in serum matrix, 5.56 ng/mL NGF, no serum of 35200. The NGF dose response in serum matrix, 16.67 ng/mL NGF, 1% human serum was 24600, the NGF dose response in serum matrix, 16.67 ng/mL NGF, 2% rat serum was 42400 and the NGF dose response in serum matrix, 16.67 ng/mL NGF, 5% cyno serum was 51800. For the same substance, the NGF dose response in serum matrix, 16.67 ng/mL NGF, no serum was 39700, the NGF dose response in serum matrix, 50.00 ng/mL NGF, 1% human serum was 19700 and the NGF dose response in serum matrix, 50.00 ng/mL NGF, 2% rat serum was 46900. The NGF dose response in serum matrix, 50.00 ng/mL NGF, 5% cyno serum was 56400, the NGF dose response in serum matrix, 50.00 ng/mL NGF, no serum was 41000 and the NGF dose response in serum matrix, 150.00 ng/mL NGF, 1% human serum was 18600. It also gave an NGF dose response in serum matrix, 150.00 ng/mL NGF, 2% rat serum of 49500, an NGF dose response in serum matrix, 150.00 ng/mL NGF, 5% cyno serum of 62100 and an NGF dose response in serum matrix, 150.00 ng/mL NGF, no serum of 44100. The [3H]-thymidine counts, NECDsc-14 NGF-dependent, 0.02 ng/ml was 1960 counts, the [3H]-thymidine counts, NECDsc-14 NGF-dependent, 0.07 ng/ml was 4690 counts and the [3H]-thymidine counts, NECDsc-14 NGF-dependent, 0.21 ng/ml was 8030 counts. It also gave a [3H]-thymidine counts, NECDsc-14 NGF-dependent, 0.62 ng/ml of 16800 counts, a [3H]-thymidine counts, NECDsc-14 NGF-dependent, 1.85 ng/ml of 22400 counts and a [3H]-thymidine counts, NECDsc-14 NGF-dependent, 5.56 ng/ml of 24200 counts. It also gave a [3H]-thymidine counts, NECDsc-14 NGF-dependent, 16.67 ng/ml of 22900 counts, a [3H]-thymidine counts, NECDsc-14 NGF-dependent, 50.00 ng/ml of 21600 counts and a [3H]-thymidine counts, NECDsc-14 NGF-dependent, 150.00 ng/ml of 20900 counts.
